The values below come from the nanobody polyreactivity screen of Harvey et al. (2022).

This data set can be described thus: yeast display, Sf9 membrane polyspecificity reagent, FACS + sequencing; frameworks hold sequencing errors. The method, boiled down: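 A nanobody's polyreactivity label depends on the gate it was sorted from. Yeast display cells were stained with 10% biotinylated, detergent-solubilized Sf9 membrane reagent for 1 hour at 4 °C, enriched on streptavidin microbeads and sorted by FACS. The low and high (top ~1%) gates were set on anti-HA fluorescence for expression and streptavidin fluorescence for reagent binding.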
As to “QVQLVESGGGLVQAGGSLSLSCAASGSIFLRNAMGWYRQAPGKERELVAAITWDSGDTYYADSVKGRFTISRDHAKNTVYLQMNSLKPEDTAVYYCNTLGLSSDWGQGTQVTVSS”, the “polyreactivity (PSR sort gate)” value was “low polyreactivity”.
For “QVQLVESGGGLVQAGGSLSLSCAASGSIFLRNAMGWYRQAPGKETEYVASITWNGASTSYADSVMGRFTISRDNAKNTVYLQMNSLKPEDTAVYYCAARDSQYGGPGMDYWGQGTQVTVSS” the value was “low polyreactivity”.
For “QVQLVESGGGLVQAGGSLSLSCAASGSIFNPYGKGWYRQAPGKERELVAAITSSGGDTYYADSVKGRFTISRDNAKNTVYLQMNSLKPEDTAVYYCAATGLPGYYAYDYWGHGTQVTVSS” the value was “low polyreactivity”; for “QVQLVESGGGLVQAGGSLSLSCAASGSIFNRYTMGWYRQAPGKERELVADISKSGTRTYYADSVKGRFTISRDNAKNTVYLQMNSQKPEDTSVYYCAKSSVAVYQTRYDYWGQGTQVNVSS”, “high polyreactivity”; for “QVQLVESGGGLVQAGGSLSLSCAASGSIFPGNAMGWYRQAPGKERELVAVIDFSGASTYYADSVKGRFTISRDNAKNTVYLQMNSLKPEDTADYWGQGTQVTVSS”, “low polyreactivity”.
With “QVQLVESGGGLVQAGGSLSLSCAASGSIFQPYVMGWYRQAPGKEREFVATIRYSGGITYADSVKGRFTISRDNSKNTVYLQMNSLKPVVTAVYYCACYCYCYWGQGTQVNVSS” the entry was “low polyreactivity”; with “QVQLVESGGGLVQAGGSLSLSCAASGSIFRHNVMGWYIPAPGKERELVAAISGGGGRTYYADSVKGRFTISRDNAKNTDYLQMKSLKPEDTAVYYCYAYVGLSEGDYWGQGTHVTVSS”, “high polyreactivity”.
Turning to “QVQLVESGGGLVQAGGSLSLSCAASGSIFRYYAMGWYRQAPGKERELVAAITSGGRTNYADSVKGRFTISRDNAKNTVYLQMNSLKREDTAVYYCNKCYNAVWRYRGDYWGQGTQVTVSS”, the “polyreactivity (PSR sort gate)” value was “high polyreactivity”.
As to “QVQLVESGGGLVQAGGSLSLSCAASGSIFVIYTMGWYRPAPGKERELVAGITWSTGNTYYADSVKGRFTISRDNAKNTFYLQMNSLKPEDTAVYSCAARTTSRWRSGAYYYWGQGTQVTVSS”, the “polyreactivity (PSR sort gate)” value is given as “high polyreactivity”.
With “QVQLVESGGGLVQAGGSLSLSCAASGSIFVYKAMGWYRPAHGKERELVAAISSSGGSTYYADSVKGRFTISRDNAKNTVYLQMNSLKPEDTAVYYCAAEAVRKVPSYYSYAYYYWGQGTQVTVSS” the entry was “high polyreactivity”; with “QVQLVESGGGLVQAGGSLSLSCAASGSIFYGNAMGWYRQEPGKERELVAAITYGTSSTYYADSVKGRFTISRDKAKNTVYLQMNSLKPEDTAVYYCAADAKSHPTTRNYVGSPMDYWGQGTQVTVSS”, “low polyreactivity”; with “QVQLVESGGGLVQAGGSLSLSCAASGSIIARYAMGWYRQAPGKERELVAAITWSATSTYYADSVKGRFTISRDNAKNTVYLQMTSLKPEDTAVYYCNAGASYFLVISQSRRDYWGQGTQVTVSS”, “low polyreactivity”.
On to “QVQLVESGGGLVQAGGSLSLSCAASGSTFDRYAMGWYRQAPGKERELVAAISHSGGRTYYADSVKGRFTISRDNAKNTVYLQMNSLKPEDTAVFYCAAKSRSGTEAAYGYWGQGTQVTVSS”, for which the “polyreactivity (PSR sort gate)” value is on record as “low polyreactivity”.
For “QVQLVESGGGLVQAGGSLSLSCAASGSTFFSYAMGWYRQAPGKEREFVAAITYSSGRTYYADSVKGRFTISRDNAKNTVYLQMNSLKPEDTAVYYCATTGFVWGRGYDYWGQGTQVTVSS” the value was “high polyreactivity”.
For “QVQLVESGGGLVQAGGSLSLSCAASGSTFGDYAMGWYRQAPGKERELVAAITSSGGRTFYADSVKGRFTISRDNAKNTVYLQMNSLKPEDHAVYYCAAEFTDPPSEYEYWGQGTQVTVSS” the value was “low polyreactivity”; for “QVQLVESGGGLVQAGGSLSLSCAASGSTFGSNAKGWYRQAPGKARELVAAISSDGSTNYADSVKGRFTISRDNAKNTVYLQMNSLKPEDTAVYYCAADDRHRYNIYDYWGQGTQVTLSS”, “low polyreactivity”.
With “QVQLVESGGGLVQAGGSLSLSCAASGSTFRGYAMGWDRQAPGKERELVADSTYYADSVKGRFTISRDNAKNTVYFQMNCLKPEDTAVYYCNADIAGWGSQDGTDDYWGLGTQVTVSS” the entry was “high polyreactivity”; with “QVQLVESGGGLVQAGGSLSLSCAASGSTFSRYGMGGYRQAPGKERELVAAISYSGGGTYYADSVKGRFTISRDNAKNTVYLQMNSQKREDNAVYYCNVEYPKRANLSDYWGQGTQVTVSS”, “high polyreactivity”; with “QVQLVESGGGLVQAGGSLSLSCAASGSTFSVYAMGWYRQAPGKERELVAAITRSGGSTYYADSVKGRFTISRDNAKNTVYLQMNSLIAEDSAVYYCNAEWYYVWFITTYWLDQYGYWGQGTQVTVSS”, “low polyreactivity”.
Turning to “QVQLVESGGGLVQAGGSLSLSCAASGSTFVPNLMGWYRQAPGKERELVAAITWSGGTTTFYADSVKGRFTISRDNAKNTVYLQMNSLKPEDTAVYYCAVTRGGQYYPYYYWGQGTQVTVSS”, the “polyreactivity (PSR sort gate)” value is listed as “low polyreactivity”.
For “QVQLVESGGGLVQAGGSLSLSCAASGSTFVPYAMGWYRPAPGKERELVAAISSTGGSTYYADSVKGRFTISRDNAKNTVYLQMNSLKAEDTAVYYCNALAKIRYGQINKGYYWGQGTQVTVSS” the value was “high polyreactivity”; for “QVQLVESGGGLVQAGGSLSLSCAASGSTFVVNAMGWYRQAPGKERELVAAITQSGGSTFYADSVKGRFPISRDNAKNTVYLQMNSLKPEDTAVYYWGQGTQVTVSS”, “low polyreactivity”.
With “QVQLVESGGGLVQAGGSLSLSCAASGSTFYANAMGWYRQAPGKEREFVAAISYNGGSTYYADSVKGRFTISRDNAKNTVYFQMNSLKPEDTAVYYCNVDYDYPYYEVDYWGQGTQVTVSS” the entry was “low polyreactivity”.
With “QVQLVESGGGLVQAGGSLSLSCAASGYIFAVYAMGWYRQAPGKEREFVAVITWRGGSTYYADSVKGRFTISRDNAKNTVYLQMNSLKPEDTAVYYCAARWHFLTSSRFDYWGQGTQVTVSS” the entry was “high polyreactivity”; with “QVQLVESGGGLVQAGGSLSLSCAASGYIFRYYAMGSYRQAPGKEREFGAAISWRGGSTYYADSVKGRFTISRDNAKNTVYLQMNRLKPEDTEFYYCAAGYFSFFGHYNAGLDYWGQGTQVTVSS”, “high polyreactivity”.
Turning to “QVQLVESGGGLVQAGGSLSLSCAASGYNFYKNAMGWYRPAPGKERELVAAISTRGGSTYYADSVKGRFTISRDNAQITVYLPMNSLKPEDTAVYYCAASQHRRDWGQGTQVTVSS”, the “polyreactivity (PSR sort gate)” value is “high polyreactivity”.
For “QVQLVESGGGLVQAGGSLSLSCAASVRIFVYNVMGWYRQAPGKERELVAAISWGTGSTYADSVKGRFTISRDNAKNTVYLQMNSLKPEDTAVYYCAAAADYYYDHDYWGQGTQVTVSS” the value was “low polyreactivity”; for “QVQLVESGGGLVQAGGSLSLSCAAYGFTFWKYAMGRSRQAPGKESELVAAISVSGGRTYYADSVKGRFTISGDNAKNTVYLQINSLKPEDTASYYVATSFRNGWGSYYYWGQGTQVTVSS”, “high polyreactivity”; for “QVQLVESGGGLVQAGGSLSLSCADSGSTFPKYAMGWYRQAPGKERELVASISVTTGSTYYADTVKGRFTISRDNAKNTVYLHMNSLKPVDTAVYYCAKRTYSRKLRGAYNYWGQGTQVTVSS”, “high polyreactivity”.
For “QVQLVESGGGLVQAGGSLSLSCDASGSIFYYYAMGWYRQAPGKEREMVASITSSGGTTSYADSVKGRFTISRDNAKNTVYLQMNSLKPEDTAVYYCNAQVYRYRICYDFWGEGTQVTVSS” the value was “low polyreactivity”; for “QVQLVESGGGLVQAGGSLSLSCDASGSIIQGYAMGWYRQAPGKERELVAAISWSGTSTYYADSVKGRFTISRDNAKNTVYLQMNSLKPEDTEVYYCATDYYYYTAEYEYWGQGTQVTVSS”, “high polyreactivity”; for “QVQLVESGGGLVQAGGSLSLSCPASGFTFPPYTMGWSRQAPGKEREFVATITKSGGSTYYADSVKGRFTISRDNAKNTVYLQMNSLKPEDTAVYYCNVVWQYSTYVRYNYWGQGTQVTVSS”, “low polyreactivity”.
Turning to “QVQLVESGGGLVQAGGSLSLSSSASGRTFKGNAMGWYIQAPGKERELVAVITGSGGSTYYADSVKGRFTISRDNAKNTVYLQMNSLKPEDTAVYYCNKKLQRRSWYDYWGQGTQVTVSS”, the “polyreactivity (PSR sort gate)” value is reported as “low polyreactivity”.
For “QVQLVESGGGLVQAGGSNRLSCAASGLTSFRYTMGWYRQAPGKDRELVAGISGSRGRTYYADSVKGRFTISRDNAKNTVYLQMNCMKAVDTAVYDCAAGWYTSHAKGKGGYWGQGTQVTVSS” the value was “high polyreactivity”.
On to “QVQLVESGGGLVQAGGSNRLSCAASGYIFDIYAMGCYRQAPVKERELVAVITRSGGGTYYADSVKGRFTISRDNAKNSVYLQMNSLKPEDTAVYYCAAESYVYGGSDYDYWGQGTQVTVSS”, for which the “polyreactivity (PSR sort gate)” value is on record as “low polyreactivity”.
For “QVQLVESGGGLVQAGGSRLSCAASGLIFIWYTMGWYRQAPGKERELVAAIDSSGGNTYYADSVKGRFTISRDNAKNTVYLQMNSLKPEDTAVYYCAKDVGHGAGNLMGYWGQGTQVTVSS” the value was “low polyreactivity”.
For “QVQLVESGGGLVQAGGSRRLSCAASGCILRDNAMGWYRQAPGKEREVVAAISYSGDLTYYADSVKGRFTISRDNAKNTVYLQMNSLIPEDTAVYDCAALYPKVRGYRSDDLWGQGTQVTVSS” the value was “high polyreactivity”; for “QVQLVESGGGLVQAGGSRRLSCAASGFFFRTYSMGWYRQAPGTERELVAAISSSSGSTYYADSVKGRFTISRDNAKNTVYLQMNSLKPEDTAVYYCAAYSLSQKPRGYNYWGQGTQVTVSS”, “high polyreactivity”; for “QVQLVESGGGLVQAGGSRRLSCAASGGIFNYYTMGWYRQATGKERELVAAINSSGGNTHYADSVKGRFTISRDNAKNTVYLQMYSLKPEDTAVYYCNADARSVWFYRVDYWGQGTQVTVSS”, “low polyreactivity”.
With “QVQLVESGGGLVQAGGSRRLSCAASGNIFPQNGMGWYRQAPAKERELVAAITRGGSTYYADSVKGRFTISRDNAKNTVYVQMHSLKPEDTAVYDCAAVRPQYRRRTKANPYNYWGQGTQVTVSS” the entry was “high polyreactivity”; with “QVQLVESGGGLVQAGGSRRLSCAASGNTIYFYVMGWYRQAPGKERELVAAISSSGGSTYYADSVKGRFTISRDNAKNTVYLQMNSLKPEDTSVYYCAAEMYLSRLRYWYDYWGQGTQVTVSS”, “high polyreactivity”.
